Results reported in US20100260668A1 (published 2010).
Values joined by “and” are separate entries in the source; they are usually repeats but may differ in a detail not shown here. Equal values may be shown once.

Key:
IGF2 (IGF-2) [1] = molecular target: T1, IGF2 (IGF-2) (UniProt P01344 25-91); test: Direct Bind ELISA, antigen on plate; N-terminal VD; second value of IGF1/IGF2 cell
T1 construct: Bought reagent

IGF1 (IGF-I) [2] = molecular target: T2, IGF1 (IGF-I) (UniProt P05019 49-118); test: Direct Bind ELISA, antigen on plate; N-terminal VD; first value of IGF1/IGF2 cell
T2 construct: Bought reagent

DLL4 (DLL4 ECD/His tag) = molecular target: T3, DLL4 (DLL4 ECD/His tag) (UniProt Q9NR61 27-529, limits assumed); test: Direct Bind ELISA, antigen on plate
T3 construct: extracellular domain; Bought reagent

[3] = molecular target: T4, biotin-labeled human IGF1 (human, UniProt P05019 49-118, biotin-labeled); test: capture ELISA, antibody captured by anti-human Fc, biotin-labeled IGF1
[4] = molecular target: T5, biotin-labeled human IGF2 (human, UniProt P01344 25-91, biotin-labeled); test: capture ELISA, antibody captured by anti-human Fc, biotin-labeled IGF2
IGF2 (IGF-2) [5] = molecular target: T1, IGF2 (IGF-2); test: Direct Bind ELISA, antigen on plate; second value of IGF1/IGF2 cell
IGF1 (IGF-I) [6] = molecular target: T2, IGF1 (IGF-I); test: Direct Bind ELISA, antigen on plate; first value of IGF1/IGF2 cell
[7] = molecular target: T6, his-tagged, recombinant RON protein (R&D Systems # 1947-MS) (UniProt Q04912 25-957, limits assumed); test: IgG-Fc capture ELISA, his-tagged RON; N-terminal VD
T6 construct: extracellular domain; also called MSP Receptor ECD-His tag

[8] = molecular target: T4, biotin-labeled human IGF1; test: capture ELISA, DVD-Ig captured by anti-human Fc, biotin-labeled IGF1; C-terminal VD
biotinylated VEGF [9] = molecular target: T7, biotinylated VEGF (UniProt P15692-4 27-191, limits assumed, biotinylated); test: capture ELISA, DVD-Ig captured by anti-human Fc, biotinylated VEGF; N-terminal VD
[10] = molecular target: T5, biotin-labeled human IGF2; test: capture ELISA, DVD-Ig captured by anti-human Fc, biotin-labeled IGF2; C-terminal VD
[11] = molecular target: T8, biotin-labeled human DLL4 extracellular domain (human, UniProt Q9NR61 27-529, biotin-labeled); test: DLL4 capture ELISA, antibody captured by anti-human Fc, biotin-labeled human DLL4 ECD
T8 construct: extracellular domain

[12] = molecular target: T8, biotin-labeled human DLL4 extracellular …; test: capture ELISA, antibody captured by anti-human Fc, biotin-labeled human DLL4 ECD
IGF2 (IGF-2) [13] = molecular target: T1, IGF2 (IGF-2); test: Direct Bind ELISA, antigen on plate; C-terminal VD; second value of IGF1/IGF2 cell
IGF1 (IGF-I) [14] = molecular target: T2, IGF1 (IGF-I); test: Direct Bind ELISA, antigen on plate; C-terminal VD; first value of IGF1/IGF2 cell
biotinylated VEGF [15] = molecular target: T7, biotinylated VEGF; test: VEGF capture ELISA, antibody captured by anti-human Fc, biotinylated VEGF
[16] = molecular target: T8, biotin-labeled human DLL4 extracellular …; test: capture ELISA, DVD-Ig captured by anti-human Fc, biotin-labeled human DLL4 ECD; C-terminal VD
[17] = molecular target: T6, his-tagged, recombinant RON protein …; test: IgG-Fc capture ELISA, his-tagged RON
[18] = molecular target: T9, IGF1R (antigen of the capture ELISA table) (UniProt P08069 31-932, limits assumed); test: antigen capture ELISA, IGF1R
T9 construct: No IGF1R capture ELISA method is described; also called IGFR

T7 sequence (P15692 other isoform, or with tags, fused parts or gaps limits assumed): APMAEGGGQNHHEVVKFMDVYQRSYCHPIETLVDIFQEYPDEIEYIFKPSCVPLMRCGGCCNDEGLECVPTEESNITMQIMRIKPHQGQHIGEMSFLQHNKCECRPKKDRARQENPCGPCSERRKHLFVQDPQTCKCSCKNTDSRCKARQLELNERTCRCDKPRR

B1: DVD042 (IGF1,2 and VEGF (seq. 1) DVD-Ig) (bispecific antibody, IgG1)
VH: QVQLVQSGAEVKKPGASVKVSCKASGYTFTSYDINWVRQATGQGLEWMGWMNPNSGNTGYAQKFQGRVTMTRNTSISTAYMELSSLRSEDTAVYYCARDPYYYYYGMDVWGQGTTVTVSSASTKGPEVQLVESGGGLVQPGGSLRLSCAASGYTFTNYGMNWVRQAPGKGLEWVGWINTYTGEPTYAADFKRRFTFSLDTSKSTAYLQMNSLRAEDTAVYYCAKYPHYYGSSHWYFDVWGQGTLVTVSS
VL: QSVLTQPPSVSAAPGQKVTISCSGSSSNIENNHVSWYQQLPGTAPKLLIYDNNKRPSGIPDRFSGSKSGTSATLGITGLQTGDEADYYCETWDTSLSAGRVFGGGTKLTVLGQPKAAPDIQMTQSPSSLSASVGDRVTITCSASQDISNYLNWYQQKPGKAPKVLIYFTSSLHSGVPSRFSGSGSGTDFTLTISSLQPEDFATYYCQQYSTVPWTFGQGTKVEIKR
notes: HC vector V1 (wild-type hIgG1 constant), LC vector V4 (lambda signal peptide, kappa constant); also called DVD042H; DVD042L
EC50 (IGF2 (IGF-2) [1]): 17.6 nM | EC50 (IGF1 (IGF-I) [2]): 2.54 nM

B2: AB015 (anti-DLL-4 (seq. 1) parent antibody) (antibody, IgG1, V domains shown)
VH: EVQLVESGGGLVQPGGSLRLSCAASGFTFTDNWISWVRQAPGKGLEWVGYISPNSGFTYYADSVKGRFTISADTSKNTAYLQMNSLRAEDTAVYYCARDNFGGYFDYWGQGTLVTVSS
VL: DIQMTQSPSSLSASVGDRVTITCRASQDVSTAVAWYQQKPGKAPKLLIYSASFLYSGVPSRFSGSGSGTDFTLTISSLQPEDFATTYYCQQSYTGTVTFGQGTKVEIKR
notes: HC vector V1 (wild-type hIgG1 constant), LC vector V2 (kappa constant); also called AB015VH; AB015VL
EC50 (DLL4 (DLL4 ECD/His tag)): 0.31 nM

B3: AB010 (antibody, human IgG1, lambda, V domains shown)
VH: QVQLVQSGAEVKKPGASVKVSCKASGYTFTSYDINWVRQATGQGLEWMGWMNPNSGNTGYAQKFQGRVTMTRNTSISTAYMELSSLRSEDTAVYYCARDPYYYYYGMDVWGQGTTVTVSS
VL: QSVLTQPPSVSAAPGQKVTISCSGSSSNIENNHVSWYQQLPGTAPKLLIYDNNKRPSGIPDRFSGSKSGTSATLGITGLQTGDEADYYCETWDTSLSAGRVFGGGTKLTVLG
notes: also called IGF1,2 parent antibody
EC50 [3]: 4.8 nM | EC50 [4]: 10 nM and 18.1 nM

B4: AB010 (anti-IGF1,2 parent antibody) (antibody, IgG1, V domains shown)
VH: QVQLVQSGAEVKKPGASVKVSCKASGYTFTSYDINWVRQATGQGLEWMGWMNPNSGNTGYAQKFQGRVTMTRNTSISTAYMELSSLRSEDTAVYYCARDPYYYYYGMDVWGQGTTVTVSS
VL: QSVLTQPPSVSAAPGQKVTISCSGSSSNIENNHVSWYQQLPGTAPKLLIYDNNKRPSGIPDRFSGSKSGTSATLGITGLQTGDEADYYCETWDTSLSAGRVFGGGTKLTVLG
notes: HC vector V1 (wild-type hIgG1 constant), LC vector V3 (lambda constant); also called AB010VH; AB010VL
EC50 (IGF2 (IGF-2) [5]): 10 nM and 18.1 nM | EC50 (IGF1 (IGF-I) [6]): 4.77 nM

B5: DVD033 (bispecific antibody, human IgG1, kappa)
heavy: not shown
light: DVVMTQSPLSLPVTPGEPASISCRSSQSLLHSNGFNYVDWYLQKPGQSPHLLIYFGSYRASGVPDRFSGSGSGTDFTLKISRVEAEDVGVYYCMQALQTPPWTFGQGTKVEIRRTVAAPDIQMTQSPSSVSASVGDRVTITCRASQGISSWLAWYQQKPGKAPNLLIYEASSLQSGVPSRFGGSGSGTDFTLTISSLQPEDFATYYCQQANGFPWTFGQGTKVEIKRTVAAPSVFIFPPSDEQLKSGTASVVCLLNNFYPREAKVQWKVDNALQSGNSQESVTEQDSKDSTYSLSSTLTLSKADYEKHKVYACEVTHQGLSSPVTKSFNRGEC
notes: DVD-Ig; also called RON / HGF DVD-Ig; DVD033H
EC50 [7]: 2.5 nM

B6: DVD041 (bispecific antibody, human IgG1, lambda)
heavy: not shown
light: DIQMTQSPSSLSASVGDRVTITCSASQDISNYLNWYQQKPGKAPKVLIYFTSSLHSGVPSRFSGSGSGTDFTLTISSLQPEDFATYYCQQYSTVPWTFGQGTKVEIKRTVAAPQSVLTQPPSVSAAPGQKVTISCSGSSSNIENNHVSWYQQLPGTAPKLLIYDNNKRPSGIPDRFSGSKSGTSATLGITGLQTGDEADYYCETWDTSLSAGRVFGGGTKLTVLGQPKAAPSVTLFPPSSEELQANKATLVCLISDFYPGAVTVAWKADSSPVKAGVETTTPSKQSNNKYAASSYLSLTPEQWKSHRSYSCQVTHEGSTVEKTVAPTECS
notes: DVD-Ig; also called VEGF / IGF1,2 DVD-Ig; DVD041H
EC50 [8]: 381 nM | EC50 (biotinylated VEGF [9]): 0.7 nM | EC50 [10]: 7340 nM

B7: AB015 (antibody, human IgG1, kappa)
heavy: not shown
light: DIQMTQSPSSLSASVGDRVTITCRASQDVSTAVAWYQQKPGKAPKLLIYSASFLYSGVPSRFSGSGSGTDFTLTISSLQPEDFATTYYCQQSYTGTVTFGQGTKVEIKRTVAAPSVFIFPPSDEQLKSGTASVVCLLNNFYPREAKVQWKVDNALQSGNSQESVTEQDSKDSTYSLSSTLTLSKADYEKHKVYACEVTHQGLSSPVTKSFNRGEC
EC50 [11]: 0.15 nM and 0.18 nM and 0.14 nM | EC50 [12]: 0.03 nM

B8: DVD041 (VEGF (seq. 1) and IGF1,2 DVD-Ig) (bispecific antibody, IgG1)
VH: EVQLVESGGGLVQPGGSLRLSCAASGYTFTNYGMNWVRQAPGKGLEWVGWINTYTGEPTYAADFKRRFTFSLDTSKSTAYLQMNSLRAEDTAVYYCAKYPHYYGSSHWYFDVWGQGTLVTVSSASTKGPQVQLVQSGAEVKKPGASVKVSCKASGYTFTSYDINWVRQATGQGLEWMGWMNPNSGNTGYAQKFQGRVTMTRNTSISTAYMELSSLRSEDTAVYYCARDPYYYYYGMDVWGQGTTVTVSS
VL: DIQMTQSPSSLSASVGDRVTITCSASQDISNYLNWYQQKPGKAPKVLIYFTSSLHSGVPSRFSGSGSGTDFTLTISSLQPEDFATYYCQQYSTVPWTFGQGTKVEIKRTVAAPQSVLTQPPSVSAAPGQKVTISCSGSSSNIENNHVSWYQQLPGTAPKLLIYDNNKRPSGIPDRFSGSKSGTSATLGITGLQTGDEADYYCETWDTSLSAGRVFGGGTKLTVLG
notes: HC vector V1 (wild-type hIgG1 constant), LC vector V5 (kappa signal peptide, lambda constant); also called DVD041H; DVD041L
EC50 (IGF2 (IGF-2) [13]): 7340 nM | EC50 (IGF1 (IGF-I) [14]): 381 nM

B9: AB071 (antibody, human IgG1, kappa, L234A L235A, V domains shown)
VH: EVQLVESGGGLVQPGGSLRLSCAASGFTINASWIHWVRQAPGKGLEWVGAIYPYSGYTNYADSVKGRFTISADTSKNTAYLQMNSLRAEDTAVYYCARWGHSTSPWAMDYWGQGTLVTVSS
VL: DIQMTQSPSSLSASVGDRVTITCRASQVIRRSLAWYQQKPGKAPKLLIYAASNLASGVPSRFSGSGSGTDFTLTISSLQPEDFATYYCQQSNTSPLTFGQGTKVEIKR
EC50 (biotinylated VEGF [15]): 0.38 nM

B10: DVD043 (bispecific antibody, human IgG1, kappa)
heavy: not shown
light: DIQMTQSPSSLSASVGDRVTITCSASQDISNYLNWYQQKPGKAPKVLIYFTSSLHSGVPSRFSGSGSGTDFTLTISSLQPEDFATYYCQQYSTVPWTFGQGTKVEIKRTVAAPDIQMTQSPSSLSASVGDRVTITCRASQDVSTAVAWYQQKPGKAPKLLIYSASFLYSGVPSRFSGSGSGTDFTLTISSLQPEDFATTYYCQQSYTGTVTFGQGTKVEIKRTVAAPSVFIFPPSDEQLKSGTASVVCLLNNFYPREAKVQWKVDNALQSGNSQESVTEQDSKDSTYSLSSTLTLSKADYEKHKVYACEVTHQGLSSPVTKSFNRGEC
notes: DVD-Ig; also called VEGF / DLL4 DVD-Ig; DVD043H
EC50 (biotinylated VEGF [9]): 0.2 nM | EC50 [16]: 0.5 nM

B11: AB005 (antibody, human IgG1, kappa, V domains shown)
VH: EVQLVQSGGGLVKPGGSLRLSCAASGFTFSSYAMHWVRQAPGKGLEWVAVISYDGSNKYYADSVKGRFTISRDNSKNTLYLQMNSLRAEDTAVYYCARFSGWPNNYYYYGMDVWGQGTTVTVSS
VL: DVVMTQSPLSLPVTPGEPASISCRSSQSLLHSNGFNYVDWYLQKPGQSPHLLIYFGSYRASGVPDRFSGSGSGTDFTLKISRVEAEDVGVYYCMQALQTPPWTFGQGTKVEIRR
EC50 [17]: 1.6 nM and 0.7 nM and 1.3 nM

B12: AB011 (antibody, human IgG1, kappa, V domains shown)
VH: EVQLLESGGGLVQPGGSLRLSCTASGFTFSSYAMNWVRQAPGKGLEWVSAISGSGGTTFYADSVKGRFTISRDNSRTTLYLQMNSLRAEDTAVYYCAKDLGWSDSYYYYYGMDVWGQGTTVTVSS
VL: DIQMTQFPSSLSASVGDRVTITCRASQGIRNDLGWYQQKPGKAPKRLIYAASRLHRGVPSRFSGSGSGTEFTLTISSLQPEDFATYYCLQHNSYPCSFGQGTKLEIKR
EC50 [18]: 0.3 nM
